{"source": "patent US6716624B2", "about": "“GSK3 polypeptides” (Chiron Corporation, priority 2000, dated 2004)", "key": {"[1]": {"assay": "Aggregation of the purified construct on storage", "type": "physicochemical", "procedure": "The GSK3 constructs of the invention are capable of crystallization. […] Potential to crystallize is measured using a variety of assays including specific activity, aggregation, microheterogeneity. (See, for example, Table 1). These parameters are indicative of the purity of the preparation and of the solubility of the construct. The specific activity is also a preferred assay for detecting binding of an inhibitor to the correct binding site of the GSK3 construct. Another suitable method is fluorescence polarization. Briefly, a putative inhibitor, with an attached fluorophore, tumbles freely in solution. Thus when the fluorophore is excited by polarized light, the emitted light which is produced after a finite delay now has random polarity and the emitted light is no longer polarized. […] A measurement of fluorescence polarization therefore indicates whether or not the GSK3 construct is suitable for identifying and optimizing an inhibitor. […] GSK3 constructs may not retain kinase activity, but their inhibitor binding can still be assessed using fluorescence polarization assays.\nA truncated GSK3 polypeptide of the invention can be selected on the basis of one or more parameters. […] The potential of a polypeptide to form crystals can be evaluated on the basis of specific activity, purity, homogeneity, mass spectrometry, aggregation, and dynamic light scattering. […]"}, "[2]": {"system": "prephosphorylated SGSG-linked CREB peptide", "assay": "Kinase specific activity of truncated GSK3β polypeptides (P81 filter assay)", "type": "biochemical", "details": "5.9 μM CREB peptide, 25 μM ATP, 20 min at room temperature", "procedure": "A reaction mixture was prepared containing 5.9 μM prephosphorylated SGSG-linked CREB peptide (Wang et al., Anal. Biochem., 220:397-402 (1994))μ in reaction buffer (5 mM Tris, pH 7.5, 5 mM DTT; 1 mM MgCl2, 0.01% BSA) containing the desired amount of truncated GSK3 polypeptide. ATP was added (specific activity 5.3 Ci/mmol) to 25 μM final concentration and the mixture was incubated for 20 min. at room temperature. The reaction was stopped by transferring 30 μl onto a P81 filter disc (Whatman). The disc was washed four times in 150 ml of 75 mM H3PO4 for 5 minute each. The filter was air dried and counted under 5 ml scintillation fluid. The specific activity was counted by determining the ratio of counts (in cpm) by the mass of GSK3 in the reaction (in μg)."}, "[3]": {"assay": "Concentration of the protein stock (solubility of the construct)", "type": "physicochemical", "details": "concentrated protein stock", "procedure": "The GSK3 constructs of the invention are capable of crystallization. […] Potential to crystallize is measured using a variety of assays including specific activity, aggregation, microheterogeneity. (See, for example, Table 1). These parameters are indicative of the purity of the preparation and of the solubility of the construct. The specific activity is also a preferred assay for detecting binding of an inhibitor to the correct binding site of the GSK3 construct. Another suitable method is fluorescence polarization. Briefly, a putative inhibitor, with an attached fluorophore, tumbles freely in solution. Thus when the fluorophore is excited by polarized light, the emitted light which is produced after a finite delay now has random polarity and the emitted light is no longer polarized. In the presence of a GSK3 construct with an intact inhibitor binding site, the tumbling rate is slowed sufficiently to ensure that, even though the light emission is delayed with respect to the excitation, the fluorophore has only moved very slightly. Thus, the excited light maintains polarization. A measurement of fluorescence polarization therefore indicates whether or not the GSK3 construct is suitable for identifying and optimizing an inhibitor. […] GSK3 constructs may not retain kinase activity, but their inhibitor binding can still be assessed using fluorescence polarization assays. […]"}}, "data": [{"substance": "Construct 557: Truncated human GSK3β, M1 to I384, with N-terminal Glu-tag and Gly linker (SEQ ID NO:2)", "values": [{"measurement": "Aggregation at 4 Degrees", "setting": "[1]; 4 degrees, > 2 weeks", "result": "none @ > 2"}, {"measurement": "Aggregation at RT", "setting": "[1]; room temperature, time at which aggregation occurs", "result": "overnight"}, {"measurement": "Mean Specific Activity", "setting": "[2]; mean of N assays", "result": "4.3 × 10^7 cpm/μg"}, {"measurement": "specific activity", "setting": "[2]; stated in the text", "result": "4.3×10^7 cpm/μg"}, {"measurement": "Concentration", "setting": "[3]", "result": 12700, "unit": "µg/mL"}]}]}
